We go through one substance from US20070219354A1.

The target in this assay is APP695-derived polypeptide (SEQ. ID. NO.:28) having the modified sequence NLDV (SEQ. ID. NO.:7) (Homo sapiens (Human)) (UniProt P05067). Briefly: cell-based or functional assay.

Bounds are passed on as bounds.

With “β-secretase of the HEK293T cells used in Example 4 (from UniProt P56817 46-501) (enzyme)”, the Aβ production in HEK293T cells (IP/Western, densitometry) (times the level of wild type APP695) was greater than 3.
